Among the data in paper doi:10.1101/2022.12.30.522206 are stoichiometry N and stoichiometry N (PduL dimers per PduA trimer of hexamers) values, retold here.

Common to all, as to assay: native gel or EMSA
In general terms: A gel shift assay detects complexes by their altered migration in electrophoresis.

For assay [1], the target named is PduA*(A63R) (Salmonella typhimurium LT2).
Assay [2] concerns the target PduA* (PduA with a C-terminal 23 residue extension) (Salmonella typhimurium LT2).
Assay [3] shares this target. This is another data set of the same source.

Read-outs that look alike come from different tables or passages of the source.

Turning to PduA*(A63R) (natural protein), the stoichiometry N – broadly, a count of units in the complex or per binding partner – in assay [1] turned out to be 3 hexamers. For the molecule “PduA* (PduA with a C-terminal 23 residue extension) (natural protein)”, the stoichiometry N in assay [2] is 3 hexamers.

B1: PduL (enzyme)
chain: MDKQQLETTVTKVLDEMRERPIPLGISNRHIHLCAEDYDRLFPNHPISEKKELLQPGQYAADQTVTLVGPKGQLKNVRLLGPLRSTSQVEISRTDARTLGIAAPLRMSGSIEGTPGVRLISPFAELDLASGVIVAQRHIHMSPLDALILRVSHGDKVSVAINGDERRLIFDNVAVRVSPDMRLEMHIDTDEANAAGADNPQAFATLVSPR
In assay [3], B1 returned a stoichiometry N of 1 and a stoichiometry N (PduL dimers per PduA trimer of hexamers) of 3.
